Assay results reported in IntAct's records for PubMed 31515488.

B1: DCC-interacting protein 13-beta (Homo sapiens), Q8NEU8 (parent)
chain: MPAVDKLLLEEALQDSPQTRSLLSVFEEDAGTLTDYTNQLLQAMQRVYGAQNEMCLATQQLSKQLLAYEKQNFALGKGDEEVISTLHYFSKVVDELNLLHTELAKQLADTMVLPIIQFREKDLTEVSTLKDLFGLASNEHDLSMAKYSRLPKKKENEKVKTEVGKEVAAARRKQHLSSLQYYCALNALQYRKQMAMMEPMIGFAHGQINFFKKGAEMFSKRMDSFLSSVADMVQSIQVELEAEAEKMRVSQQELLSVDESVYTPDSDVAAPQINRNLIQKAGYLNLRNKTGLVTTTWERLYFFTQGGNLMCQPRGAVAGGLIQDLDNCSVMAVDCEDRRYCFQITTPNGKSGIILQAESRKENEEWICAINNISRQIYLTDNPEAVAIKLNQTALQAVTPITSFGKKQESSCPSQNLKNSEMENENDKIVPKATASLPEAEELIAPGTPIQFDIVLPATEFLDQNRGSRRTNPFGETEDESFPEAEDSLLQQMFIVRFLGSMAVKTDSTTEVIYEAMRQVLAARAIHNIFRMTESHLMVTSQSLRLIDPQTQVSRANFELTSVTQFAAHQENKRLVGFVIRVPESTGEESLSTYIFESNSEGEKICYAINLGKEIIEVQKDPEALAQLMLSIPLTNDGKYVLLNDQPDDDDGNPNEHRGAESEA
partner: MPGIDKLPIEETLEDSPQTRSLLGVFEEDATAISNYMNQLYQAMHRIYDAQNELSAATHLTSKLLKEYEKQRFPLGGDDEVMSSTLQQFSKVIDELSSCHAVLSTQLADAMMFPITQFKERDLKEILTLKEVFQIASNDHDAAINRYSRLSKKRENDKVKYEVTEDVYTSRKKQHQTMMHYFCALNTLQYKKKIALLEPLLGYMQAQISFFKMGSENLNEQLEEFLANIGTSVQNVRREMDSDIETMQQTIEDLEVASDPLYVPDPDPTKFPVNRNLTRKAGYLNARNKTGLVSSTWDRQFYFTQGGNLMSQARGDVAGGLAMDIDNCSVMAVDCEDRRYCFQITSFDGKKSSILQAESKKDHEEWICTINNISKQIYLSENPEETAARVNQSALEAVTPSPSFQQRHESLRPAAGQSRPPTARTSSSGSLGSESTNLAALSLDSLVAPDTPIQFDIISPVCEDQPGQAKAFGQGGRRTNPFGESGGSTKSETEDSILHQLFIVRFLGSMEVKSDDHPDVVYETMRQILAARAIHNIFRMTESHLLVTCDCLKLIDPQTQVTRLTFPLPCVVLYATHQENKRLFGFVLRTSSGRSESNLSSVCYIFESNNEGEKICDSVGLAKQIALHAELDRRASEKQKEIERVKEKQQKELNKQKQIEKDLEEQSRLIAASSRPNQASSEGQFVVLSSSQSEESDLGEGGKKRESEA
B2: Coiled-coil domain-containing protein 60 (Homo sapiens), Q8IWA6 (parent)
chain: MTKVPATKKLQSSPNSGAVRPFYASENLRQVPDKPMKSIKYMDKEIINLKKDLIRSRFLIQSVKIGRGYFAILREETAKKKKQQQLQKLKEEERNKFQPAEKISEIHYGDTLLSTYDDEKLKTLGARVTRRPFTPIHSCIISPSLTEAHVEPLFRQLCALHWLLEALTIDHTHHTMKPVITCWNPKDPGGSKSTIKKINKDKSMGQKWEHFITAPKTKKFKIPTMRVTNRKPSRRGSTLSLSRASGGSSPQSSMISVNPGSDEPPSVNTQVTSSKDIEDNESSSTKPDEEPLYMNLQKLLEMVREDARRTVTIENGMQRKAPSILSVLKQNKSNSAYKEMQTTLKSSERSSSTSAESHIQPVQKKSKNRTNCDINIHYKSGVCNTMRAKFYSVAQEAGFCLQDKMEILMKRQEERGIQKFRAFVLVSNFQKDIAKMRHHISVVKGDAEEIADHWYFDLLSKLPEDLKNFRPAKKILVKLQKFGENLDLRIRPHVLLKVLQDLRIWELCSPDIAVAIEFVREHIIHMPQEDYISWLQSRINIPIGPYSALR
B3: Proteasome subunit beta type-1 (Homo sapiens), P20618 (parent)
chain: MLSSTAMYSAPGRDLGMEPHRAAGPLQLRFSPYVFNGGTILAIAGEDFAIVASDTRLSEGFSIHTRDSPKCYKLTDKTVIGCSGFHGDCLTLTKIIEARLKMYKHSNNKAMTTGAIAAMLSTILYSRRFFPYYVYNIIGGLDEEGKGAVYSFDPVGSYQRDSFKAGGSASAMLQPLLDNQVGFKNMQNVEHVPLSLDRAMRLVKDVFISAAERDVYTGDALRICIVTKEGIREETVSLRKD
partner: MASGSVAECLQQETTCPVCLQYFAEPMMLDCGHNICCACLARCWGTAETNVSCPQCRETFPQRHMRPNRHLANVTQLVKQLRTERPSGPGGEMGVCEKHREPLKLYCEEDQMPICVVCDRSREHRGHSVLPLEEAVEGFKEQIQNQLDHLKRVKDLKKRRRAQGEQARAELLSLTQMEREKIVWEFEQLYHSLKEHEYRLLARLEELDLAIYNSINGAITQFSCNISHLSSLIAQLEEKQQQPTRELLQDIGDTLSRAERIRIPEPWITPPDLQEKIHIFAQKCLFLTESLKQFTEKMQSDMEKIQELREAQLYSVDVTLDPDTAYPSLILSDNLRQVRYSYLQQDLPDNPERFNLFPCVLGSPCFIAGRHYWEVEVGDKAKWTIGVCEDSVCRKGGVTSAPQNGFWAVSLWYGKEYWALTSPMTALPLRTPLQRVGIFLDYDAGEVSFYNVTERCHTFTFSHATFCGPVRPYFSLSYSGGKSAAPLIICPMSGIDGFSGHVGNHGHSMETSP
B4: Complex I assembly factor TIMMDC1, mitochondrial (Homo sapiens), Q9NPL8 (parent)
chain: MEVPPPAPRSFLCRALCLFPRVFAAEAVTADSEVLEERQKRLPYVPEPYYPESGWDRLRELFGKDEQQRISKDLANICKTAATAGIIGWVYGGIPAFIHAKQQYIEQSQAEIYHNRFDAVQSAHRAATRGFIRYGWRWGWRTAVFVTIFNTVNTSLNVYRNKDALSHFVIAGAVTGSLFRINVGLRGLVAGGIIGALLGTPVGGLLMAFQKYSGETVQERKQKDRKALHELKLEEWKGRLQVTEHLPEKIESSLQEDEPENDAKKIEALLNLPRNPSVIDKQDKD
partner: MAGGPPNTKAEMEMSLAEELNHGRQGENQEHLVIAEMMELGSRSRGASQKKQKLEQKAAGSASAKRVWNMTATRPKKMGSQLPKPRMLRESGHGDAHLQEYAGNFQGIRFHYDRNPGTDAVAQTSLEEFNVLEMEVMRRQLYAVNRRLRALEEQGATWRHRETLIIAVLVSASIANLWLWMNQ

Variants of: B1
Settings: with dp13a_human APPL1, Q9UKG1

Row | effect of a mutation on the interaction | Variant
1 | with no effect | K70R

Variants of: B2
Settings: with mtus2_human MTUS2, Q5JR59
mtus2_human MTUS2, Q5JR59, sequence (Q5JR59 whole entry): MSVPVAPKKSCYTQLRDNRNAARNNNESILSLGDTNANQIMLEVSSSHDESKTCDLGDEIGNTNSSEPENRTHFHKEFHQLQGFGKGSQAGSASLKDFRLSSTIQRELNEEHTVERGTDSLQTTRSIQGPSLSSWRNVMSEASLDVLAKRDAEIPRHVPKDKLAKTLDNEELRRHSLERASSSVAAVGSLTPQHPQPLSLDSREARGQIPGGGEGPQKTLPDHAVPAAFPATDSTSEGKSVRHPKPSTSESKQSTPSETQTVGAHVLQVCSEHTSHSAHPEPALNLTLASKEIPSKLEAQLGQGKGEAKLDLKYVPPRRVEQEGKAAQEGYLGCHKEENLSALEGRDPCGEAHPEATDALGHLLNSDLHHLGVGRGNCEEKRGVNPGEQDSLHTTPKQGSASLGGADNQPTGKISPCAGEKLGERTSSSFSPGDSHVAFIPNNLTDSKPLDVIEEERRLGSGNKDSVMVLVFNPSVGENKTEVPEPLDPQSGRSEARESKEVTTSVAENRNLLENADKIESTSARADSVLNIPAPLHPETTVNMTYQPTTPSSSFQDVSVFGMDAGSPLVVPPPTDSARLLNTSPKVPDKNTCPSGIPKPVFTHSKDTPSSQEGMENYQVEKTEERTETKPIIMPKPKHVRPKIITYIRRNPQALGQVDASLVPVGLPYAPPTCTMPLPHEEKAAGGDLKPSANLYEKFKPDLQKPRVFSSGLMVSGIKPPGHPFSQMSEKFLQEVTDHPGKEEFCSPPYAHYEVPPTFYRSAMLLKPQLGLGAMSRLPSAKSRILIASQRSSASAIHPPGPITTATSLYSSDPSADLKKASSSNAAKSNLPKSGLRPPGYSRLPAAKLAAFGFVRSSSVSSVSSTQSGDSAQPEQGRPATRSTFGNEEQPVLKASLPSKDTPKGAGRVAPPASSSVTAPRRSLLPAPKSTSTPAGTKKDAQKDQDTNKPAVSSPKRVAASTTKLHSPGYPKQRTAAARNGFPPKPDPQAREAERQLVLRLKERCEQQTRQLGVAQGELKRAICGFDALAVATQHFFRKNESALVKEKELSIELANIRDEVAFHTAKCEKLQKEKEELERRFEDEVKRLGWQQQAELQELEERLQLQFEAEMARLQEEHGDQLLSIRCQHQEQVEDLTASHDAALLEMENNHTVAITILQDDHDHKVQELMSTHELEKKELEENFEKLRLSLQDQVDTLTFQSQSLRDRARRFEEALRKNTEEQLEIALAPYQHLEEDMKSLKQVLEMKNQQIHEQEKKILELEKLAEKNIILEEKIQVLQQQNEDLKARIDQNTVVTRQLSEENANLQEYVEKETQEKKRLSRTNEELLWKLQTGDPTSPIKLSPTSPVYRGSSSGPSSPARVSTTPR

Row | effect of a mutation on the interaction | Variant
2 | disrupting interaction strength | I46V

Variants of: B3
Settings: with tri27_human TRIM27, P14373

Row | effect of a mutation on the interaction | Variant
3 | with no effect | P11A

Variants of: B4
Settings: with fate1_human FATE1, Q969F0

Row | effect of a mutation on the interaction | Variant
4 | with no effect | A164G
5 | with no effect | P247S
